Results as given in the supplement of paper PMC10065799, “High-throughput profiling of sequence recognition by tyrosine kinases and SH2 domains using bacterial peptide display” (eLife, 2023).

Key:
[1] = system: AncSZ; assay: phosphorylation enrichment, bacterial display (enrichment ratio); higher = better substrate or ligand; peptides without Tyr show the background
[2] = target: Jak2 (UniProt O60674); assay: as above
[3] = target: Hck (UniProt P08631); assay: as above
[4] = target: FGFR3 (UniProt P22607); assay: as above
FGFR3, sequence (P22607 whole entry, looked up): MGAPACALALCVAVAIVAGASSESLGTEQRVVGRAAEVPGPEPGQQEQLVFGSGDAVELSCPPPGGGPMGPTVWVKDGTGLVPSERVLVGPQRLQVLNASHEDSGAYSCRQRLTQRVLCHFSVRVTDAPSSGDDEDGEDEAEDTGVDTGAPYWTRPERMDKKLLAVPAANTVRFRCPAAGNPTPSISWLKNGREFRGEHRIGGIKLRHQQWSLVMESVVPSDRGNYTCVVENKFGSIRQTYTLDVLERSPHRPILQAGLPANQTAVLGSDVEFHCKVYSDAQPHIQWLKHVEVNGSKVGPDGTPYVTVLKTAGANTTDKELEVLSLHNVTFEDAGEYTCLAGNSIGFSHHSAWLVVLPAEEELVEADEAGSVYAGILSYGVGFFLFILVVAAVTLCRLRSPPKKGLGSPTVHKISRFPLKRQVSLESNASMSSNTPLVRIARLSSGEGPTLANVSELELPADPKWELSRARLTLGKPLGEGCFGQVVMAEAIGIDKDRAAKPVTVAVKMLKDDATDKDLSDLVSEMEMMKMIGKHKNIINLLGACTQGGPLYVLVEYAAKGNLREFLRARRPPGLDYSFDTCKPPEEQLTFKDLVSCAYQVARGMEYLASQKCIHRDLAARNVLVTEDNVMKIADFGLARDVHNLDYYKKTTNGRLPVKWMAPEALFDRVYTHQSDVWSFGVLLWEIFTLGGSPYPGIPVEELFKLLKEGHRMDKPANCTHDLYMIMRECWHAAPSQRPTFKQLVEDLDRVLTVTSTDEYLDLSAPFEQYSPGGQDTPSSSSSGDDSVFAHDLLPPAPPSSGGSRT

[5] = system: c-Src; assay: as above
[6] = target: Fes (UniProt P07332); assay: as above
Fes, sequence (P07332 whole entry, looked up): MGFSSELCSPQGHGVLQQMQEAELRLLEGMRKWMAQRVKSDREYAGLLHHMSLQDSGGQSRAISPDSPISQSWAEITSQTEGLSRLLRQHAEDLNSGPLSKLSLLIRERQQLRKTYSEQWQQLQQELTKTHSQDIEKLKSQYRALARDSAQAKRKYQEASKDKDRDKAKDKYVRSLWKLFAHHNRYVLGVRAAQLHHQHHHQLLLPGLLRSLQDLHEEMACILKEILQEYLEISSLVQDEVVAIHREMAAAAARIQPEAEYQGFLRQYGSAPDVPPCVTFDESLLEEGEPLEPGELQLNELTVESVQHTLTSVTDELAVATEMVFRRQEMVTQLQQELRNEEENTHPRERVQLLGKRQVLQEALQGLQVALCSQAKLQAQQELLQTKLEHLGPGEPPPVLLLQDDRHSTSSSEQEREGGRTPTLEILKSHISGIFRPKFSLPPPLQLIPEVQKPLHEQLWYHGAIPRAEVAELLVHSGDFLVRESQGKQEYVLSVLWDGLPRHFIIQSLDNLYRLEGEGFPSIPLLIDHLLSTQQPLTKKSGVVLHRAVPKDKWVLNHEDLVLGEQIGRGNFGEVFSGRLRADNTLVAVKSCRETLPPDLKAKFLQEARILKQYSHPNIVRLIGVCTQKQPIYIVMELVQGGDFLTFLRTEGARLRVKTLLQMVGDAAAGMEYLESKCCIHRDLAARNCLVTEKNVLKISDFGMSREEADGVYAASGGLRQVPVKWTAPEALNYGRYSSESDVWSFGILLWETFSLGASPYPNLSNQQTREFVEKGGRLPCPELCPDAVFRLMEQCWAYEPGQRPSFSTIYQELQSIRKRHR

[7] = target: FGFR1 (UniProt P11362); assay: as above
[8] = system: Fer (mouse); assay: as above
[9] = target: MERTK (UniProt Q12866); assay: as above
MERTK, sequence (Q12866 whole entry, looked up): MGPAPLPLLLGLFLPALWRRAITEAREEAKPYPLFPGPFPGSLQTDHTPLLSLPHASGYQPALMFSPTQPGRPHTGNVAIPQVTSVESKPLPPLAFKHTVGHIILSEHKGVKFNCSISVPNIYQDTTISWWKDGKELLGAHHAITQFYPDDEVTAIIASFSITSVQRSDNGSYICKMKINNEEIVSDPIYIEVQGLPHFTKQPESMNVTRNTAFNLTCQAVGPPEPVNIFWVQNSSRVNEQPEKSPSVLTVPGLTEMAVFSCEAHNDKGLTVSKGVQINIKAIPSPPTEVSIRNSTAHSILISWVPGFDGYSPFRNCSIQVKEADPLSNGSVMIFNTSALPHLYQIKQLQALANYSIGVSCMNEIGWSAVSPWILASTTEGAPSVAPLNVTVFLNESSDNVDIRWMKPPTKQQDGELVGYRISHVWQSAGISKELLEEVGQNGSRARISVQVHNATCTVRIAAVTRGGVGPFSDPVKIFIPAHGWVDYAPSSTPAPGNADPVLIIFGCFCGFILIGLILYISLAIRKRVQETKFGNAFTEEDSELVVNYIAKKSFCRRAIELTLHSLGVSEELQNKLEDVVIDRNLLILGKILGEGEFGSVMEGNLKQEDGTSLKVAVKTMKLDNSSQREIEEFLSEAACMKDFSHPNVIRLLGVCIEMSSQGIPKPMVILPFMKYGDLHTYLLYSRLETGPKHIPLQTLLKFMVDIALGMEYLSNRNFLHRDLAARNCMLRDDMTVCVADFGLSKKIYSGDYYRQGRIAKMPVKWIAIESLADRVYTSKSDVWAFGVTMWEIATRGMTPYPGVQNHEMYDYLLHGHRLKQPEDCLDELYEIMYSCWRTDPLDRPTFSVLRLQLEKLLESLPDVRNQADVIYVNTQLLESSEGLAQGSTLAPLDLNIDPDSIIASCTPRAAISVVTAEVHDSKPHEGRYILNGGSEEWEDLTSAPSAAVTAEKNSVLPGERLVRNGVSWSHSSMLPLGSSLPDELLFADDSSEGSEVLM

[10] = target: Fyn (UniProt P06241); assay: as above
Fyn, sequence (P06241 whole entry, looked up): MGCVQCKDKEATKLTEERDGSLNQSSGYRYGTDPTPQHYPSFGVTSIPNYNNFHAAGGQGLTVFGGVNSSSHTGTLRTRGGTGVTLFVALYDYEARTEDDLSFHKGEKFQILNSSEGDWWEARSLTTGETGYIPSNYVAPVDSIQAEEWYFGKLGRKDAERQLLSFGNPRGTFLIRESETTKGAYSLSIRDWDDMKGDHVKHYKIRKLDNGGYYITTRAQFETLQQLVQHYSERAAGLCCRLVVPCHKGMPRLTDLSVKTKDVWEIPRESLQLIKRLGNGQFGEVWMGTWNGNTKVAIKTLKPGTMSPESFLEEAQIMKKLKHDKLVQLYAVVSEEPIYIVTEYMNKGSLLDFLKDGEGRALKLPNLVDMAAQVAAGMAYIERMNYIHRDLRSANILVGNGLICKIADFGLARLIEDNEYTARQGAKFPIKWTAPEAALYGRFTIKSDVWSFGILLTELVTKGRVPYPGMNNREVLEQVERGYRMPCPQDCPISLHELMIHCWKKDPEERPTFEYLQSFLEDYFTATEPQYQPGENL

[11] = system: c-Abl (mouse); assay: as above
[12] = target: EPHB2 (UniProt P29323); assay: as above
[13] = target: EPHB1 (UniProt P54762); assay: as above
[14] = target: SHP2-C SH2; assay: SH2 binding enrichment of the phosphorylated peptide, bacterial display (enrichment ratio); higher = better substrate or ligand; peptides without Tyr show the background
[15] = target: Grb2 SH2 (UniProt P62993); assay: as above
Grb2 SH2, sequence (P62993 whole entry, looked up): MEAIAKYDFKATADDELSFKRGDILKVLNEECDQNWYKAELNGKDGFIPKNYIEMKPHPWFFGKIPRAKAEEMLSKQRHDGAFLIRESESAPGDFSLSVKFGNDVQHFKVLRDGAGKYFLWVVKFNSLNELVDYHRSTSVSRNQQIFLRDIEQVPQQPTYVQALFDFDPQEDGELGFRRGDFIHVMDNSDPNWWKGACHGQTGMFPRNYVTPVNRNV

[16] = target: c-Src SH2; assay: as above
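Throughout, for SH2 binding enrichment of the phosphorylated peptide, bacterial display: peptide library displayed on the E. coli surface as eCPX fusions, selected cells deep-sequenced, score is each peptide's frequency after selection divided by its frequency in the input.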
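Throughout, for phosphorylation enrichment, bacterial display: 11-residue human phosphosite peptides and single-mutation variants displayed on the E. coli surface, counted by deep sequencing, each peptide's frequency after selection divided by its frequency in the unselected input library; frequency after pTyr selection over input frequency; kinase dosed for 20-30% of maximal phosphorylation in three min.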

Jak2, sequence (O60674 whole entry, looked up): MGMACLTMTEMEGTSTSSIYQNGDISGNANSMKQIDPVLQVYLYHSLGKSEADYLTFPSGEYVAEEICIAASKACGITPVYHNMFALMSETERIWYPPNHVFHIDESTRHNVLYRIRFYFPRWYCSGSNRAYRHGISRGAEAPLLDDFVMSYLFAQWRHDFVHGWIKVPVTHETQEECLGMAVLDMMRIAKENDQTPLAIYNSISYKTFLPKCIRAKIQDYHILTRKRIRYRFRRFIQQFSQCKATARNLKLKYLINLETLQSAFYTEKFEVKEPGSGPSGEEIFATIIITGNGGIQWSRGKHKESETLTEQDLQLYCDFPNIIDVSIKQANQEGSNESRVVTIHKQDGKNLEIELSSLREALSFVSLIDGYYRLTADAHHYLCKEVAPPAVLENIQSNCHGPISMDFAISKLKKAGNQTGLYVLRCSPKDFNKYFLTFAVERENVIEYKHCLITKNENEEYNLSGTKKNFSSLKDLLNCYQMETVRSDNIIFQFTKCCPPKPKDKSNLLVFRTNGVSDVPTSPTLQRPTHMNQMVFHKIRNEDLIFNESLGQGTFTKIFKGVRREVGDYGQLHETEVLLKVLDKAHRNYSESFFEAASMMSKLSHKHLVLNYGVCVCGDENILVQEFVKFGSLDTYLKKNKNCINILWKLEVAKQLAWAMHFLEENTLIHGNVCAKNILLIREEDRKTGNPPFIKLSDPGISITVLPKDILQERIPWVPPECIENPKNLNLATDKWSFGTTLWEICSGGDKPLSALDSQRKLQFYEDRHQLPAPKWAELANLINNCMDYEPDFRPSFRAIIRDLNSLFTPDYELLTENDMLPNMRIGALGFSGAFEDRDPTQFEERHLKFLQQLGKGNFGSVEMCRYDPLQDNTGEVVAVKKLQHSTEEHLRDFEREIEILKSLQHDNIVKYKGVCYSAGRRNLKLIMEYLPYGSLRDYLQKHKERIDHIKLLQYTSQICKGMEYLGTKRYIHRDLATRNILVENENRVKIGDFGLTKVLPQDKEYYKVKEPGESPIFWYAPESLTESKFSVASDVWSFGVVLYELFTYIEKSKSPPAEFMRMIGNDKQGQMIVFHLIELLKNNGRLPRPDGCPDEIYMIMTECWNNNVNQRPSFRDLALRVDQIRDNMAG
Hck, sequence (P08631 whole entry, looked up): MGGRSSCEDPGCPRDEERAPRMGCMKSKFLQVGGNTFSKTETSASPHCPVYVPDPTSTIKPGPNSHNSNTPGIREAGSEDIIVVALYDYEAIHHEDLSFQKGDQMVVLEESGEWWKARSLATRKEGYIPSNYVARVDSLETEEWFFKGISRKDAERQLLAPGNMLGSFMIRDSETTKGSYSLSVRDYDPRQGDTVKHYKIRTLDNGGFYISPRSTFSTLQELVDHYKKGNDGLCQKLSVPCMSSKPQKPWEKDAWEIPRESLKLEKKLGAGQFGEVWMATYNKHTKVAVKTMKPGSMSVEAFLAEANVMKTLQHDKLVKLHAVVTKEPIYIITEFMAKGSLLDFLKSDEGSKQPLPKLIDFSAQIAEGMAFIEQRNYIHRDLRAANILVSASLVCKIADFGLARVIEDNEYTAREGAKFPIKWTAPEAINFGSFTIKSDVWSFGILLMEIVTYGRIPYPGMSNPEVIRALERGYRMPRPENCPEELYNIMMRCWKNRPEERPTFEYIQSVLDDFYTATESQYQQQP

Sequence | phosphorylation enrichment [1] | phosphorylation enrichment [2] | phosphorylation enrichment [3] | phosphorylation enrichment [4] | phosphorylation enrichment [5] | phosphorylation enrichment [6] | phosphorylation enrichment [7] | phosphorylation enrichment [8] | phosphorylation enrichment [9] | phosphorylation enrichment [10] | phosphorylation enrichment [11] | phosphorylation enrichment [12] | phosphorylation enrichment [13] | SH2 binding enrichment [14] | SH2 binding enrichment [15] | SH2 binding enrichment [16]
GYGGGYGGVLT [KRT19_Y65_A60G] | 0.556 | 0.575 | 0.665 | 0.511 | 0.453 | 0.641 | 0.468 | 0.419 | 0.391 | 0.42 | 0.468 | 0.47 | 0.359 | 0.791 | 0.742 | 0.448
GYKVRYATWSI [FGFR1_Y210] | 1.06 | 1.08 | 0.593 | 0.669 | 0.582 | 1.18 | 0.519 | 0.456 | 0.657 | 0.54 | 0.969 | 0.425 | 0.573 | 2.01 | 1.39 | 1.28
GYRVYYTPDSR [PTPRF_Y451] | 0.794 | 2.29 | 2.69 | 0.675 | 1.54 | 0.768 | 0.73 | 0.477 | 5.3 | 1.24 | 1.89 | 2.15 | 2.35 | 0.977 | 0.955 | 2.77
HCHEGYVLHGA [SVEP1_Y2921_I2922V] | 1.28 | 0.943 | 0.786 | 1.13 | 0.527 | 1.3 | 1.11 | 0.911 | 0.474 | 0.789 | 0.78 | 0.807 | 0.915 | 1.36 | 0.957 | 0.826
HEHKGYNANFC [TGFB2_Y341_P338H] | 0.603 | 0.642 | 0.832 | 0.951 | 0.542 | 0.928 | 0.7 | 0.698 | 0.612 | 0.659 | 0.464 | 0.727 | 0.505 | 0.647 | 0.775 | 0.655
HELYVYKCDEN [DOCK3_Y548] | 1.48 | 1.29 | 0.99 | 1.05 | 1.38 | 1.19 | 0.957 | 0.719 | 0.549 | 0.761 | 0.6 | 0.862 | 0.762 | 0.939 | 1.03 | 0.796
HFECKYVINAI [MAOA_Y268_YF] | 2.43 | 1.47 | 0.566 | 0.998 | 0.648 | 1.87 | 0.627 | 0.502 | 0.529 | 0.709 | 1.23 | 0.762 | 1.14 | 0.49 | 0.619 | 0.432
HFGNNYTDVLQ [MACC1_Y803_R804T_YF] | 0.874 | 0.578 | 0.426 | 0.733 | 0.66 | 0.967 | 0.544 | 0.573 | 0.638 | 0.517 | 0.761 | 0.471 | 1.61 | 3.84 | 0.711 | 3.44
HGEAYYSEVKA [PAK5_Y182_P187A] | 1.04 | 1.98 | 2.47 | 1.85 | 2.22 | 0.773 | 2.83 | 3.92 | 4.12 | 1.68 | 0.506 | 0.563 | 0.926 | 0.897 | 0.994 | 4.04
HGVSSYDTIIS [LDLR_Y465_V468I] | 1.06 | 1.08 | 0.738 | 0.785 | 1.03 | 1.08 | 0.944 | 0.712 | 0.797 | 0.669 | 1.63 | 0.819 | 0.827 | 0.546 | 0.546 | 10.6
HHFAAYFQQGD [GPI_Y351_R347H] | 0.906 | 0.989 | 0.549 | 1.19 | 0.725 | 1.13 | 0.669 | 0.435 | 0.475 | 0.418 | 0.945 | 0.602 | 0.581 | 0.898 | 1.21 | 0.661
HIKHNYECLVF [XRCC5_Y416_YF] | 1.31 | 0.547 | 0.821 | 1.09 | 0.53 | 1.09 | 0.796 | 0.665 | 0.382 | 0.709 | 0.4 | 1.44 | 1.86 | 0.715 | 0.85 | 4.51
HLGNQYVNVMN [SLC3A1_Y461_R456H] | 0.905 | 0.618 | 0.85 | 0.643 | 0.471 | 0.902 | 0.735 | 0.603 | 0.29 | 0.483 | 0.764 | 0.477 | 0.565 | 2.63 | 20.1 | 4
HLRAGYIIPLQ [GAA_Y822] | 0.668 | 0.671 | 0.268 | 0.534 | 0.327 | 0.753 | 0.367 | 0.257 | 0.355 | 0.417 | 0.681 | 0.453 | 0.398 | 3.2 | 1.66 | 1.66
HNLDYYKMTTN [FGFR3_Y648_K650M] | 1.91 | 11.2 | 0.607 | 14 | 0.894 | 1.04 | 17.7 | 0.64 | 0.68 | 0.454 | 0.591 | 1.2 | 2.13 | 1 | 0.756 | 0.757
HNLYSYPTKHE [MYO3A_Y1396] | 3.92 | 0.561 | 8.1 | 0.838 | 2.96 | 1.18 | 0.782 | 15.2 | 13.6 | 5.22 | 3.28 | 16 | 11.6 | 0.752 | 0.619 | 1.8
HSDYQYSQRSQ [PKP2_Y168] | 0.821 | 1.11 | 0.353 | 0.377 | 0.519 | 0.587 | 0.344 | 0.365 | 0.501 | 0.39 | 0.749 | 0.645 | 0.495 | 0.587 | 0.91 | 0.484

Sequence | phosphorylation enrichment [1] | phosphorylation enrichment [2] | phosphorylation enrichment [3] | phosphorylation enrichment [4] | phosphorylation enrichment [5] | phosphorylation enrichment [6] | phosphorylation enrichment [7] | phosphorylation enrichment [8] | phosphorylation enrichment [9] | phosphorylation enrichment [10] | phosphorylation enrichment [11] | phosphorylation enrichment [12] | phosphorylation enrichment [13] | SH2 binding enrichment [14] | SH2 binding enrichment [15] | SH2 binding enrichment [16]
HSHTRYERNIE [F2_Y434_R431H] | 0.766 | 0.47 | 0.477 | 0.555 | 0.795 | 0.85 | 0.62 | 0.655 | 0.5 | 0.446 | 0.694 | 0.387 | 0.67 | 1.12 | 1.2 | 0.843
HTVEDYQAIVD [CCT7_Y263] | 1.73 | 1.67 | 0.794 | 1.06 | 0.836 | 2.21 | 0.818 | 0.85 | 0.734 | 0.773 | 1.68 | 0.936 | 0.882 | 0.807 | 0.816 | 0.465
HTVVSYAKVRA [CLOCK_Y378_E380K] | 1.2 | 1.04 | 0.85 | 0.933 | 0.489 | 1.3 | 0.917 | 0.673 | 0.934 | 1.23 | 0.65 | 0.972 | 0.749 | 14.5 | 1.11 | 1.12
HVSISYDIPLT [GAB1_Y307_P311L] | 3.56 | 1.86 | 0.99 | 1.53 | 1.01 | 2.15 | 1.09 | 1.12 | 4.9 | 1.31 | 1.96 | 1.48 | 1.19 | 0.91 | 0.96 | 3.72
HYGNNYRDVLQ [MACC1_Y803] | 0.622 | 0.661 | 0.694 | 0.423 | 0.652 | 0.576 | 0.444 | 0.565 | 0.612 | 0.353 | 0.438 | 0.559 | 0.643 | 1.79 | 0.691 | 0.568
IDDNEYAFLKA [HNF4A_Y286_YF] | 1.54 | 1.13 | 0.98 | 1.43 | 0.728 | 1.32 | 1.44 | 0.659 | 0.538 | 0.8 | 0.922 | 0.597 | 0.652 | 0.546 | 0.79 | 0.469
IDGLEYLHSQG [STK11_Y166] | 0.737 | 0.796 | 0.413 | 0.637 | 0.417 | 0.906 | 0.445 | 0.426 | 0.368 | 0.619 | 0.574 | 0.499 | 0.578 | 0.57 | 0.779 | 0.478
IDSTPYGQWYE [RPS8_Y109_R110G] | 1.12 | 0.984 | 1.37 | 0.701 | 3.33 | 1.18 | 0.741 | 1.13 | 0.526 | 2.59 | 0.719 | 0.612 | 0.596 | 0.607 | 0.703 | 0.849
IFSGIYFKPES [L2HGDH_Y102_H98Y_YF] | 1.51 | 6.32 | 2.64 | 1.4 | 3.26 | 0.78 | 1.3 | 0.459 | 6 | 2.7 | 11.2 | 1.35 | 1.84 | 0.981 | 1.05 | 0.77
IGEGTYGQVYK [CDK13_Y716] | 0.605 | 0.822 | 11.8 | 0.508 | 9.38 | 0.822 | 0.553 | 0.813 | 0.714 | 13.5 | 0.593 | 1.59 | 0.889 | 0.944 | 0.667 | 0.471
IGGHAYGDQFR [IDH1_Y135_R132G_YF] | 0.464 | 0.499 | 0.36 | 0.405 | 0.317 | 0.567 | 0.351 | 0.259 | 0.306 | 0.296 | 0.418 | 0.324 | 0.3 | 0.852 | 0.826 | 0.571
IGHGSYAKVLL [PRKCZ_Y263_R260H] | 0.728 | 0.662 | 0.523 | 0.635 | 0.454 | 0.805 | 0.517 | 0.68 | 0.57 | 0.624 | 0.599 | 0.656 | 0.536 | 26.8 | 0.868 | 4.8
IGKAGYTDKMV [ENO1_Y236_V240M] | 0.523 | 0.52 | 0.376 | 0.367 | 0.336 | 0.545 | 0.377 | 0.3 | 0.372 | 0.33 | 0.407 | 0.352 | 0.445 | 1.47 | 0.82 | 0.513
IHETTYNSIKK [ACTA1_Y281_M285K] | 0.449 | 0.532 | 0.69 | 0.482 | 0.442 | 0.689 | 0.467 | 0.35 | 0.369 | 0.391 | 0.455 | 0.403 | 0.382 | 1.63 | 0.673 | 1.05
IIGNGYYFHVF [MYBPC3_Y1135_R1138H] | 0.946 | 1.19 | 0.396 | 0.803 | 0.362 | 1.22 | 0.587 | 0.491 | 0.288 | 0.349 | 0.667 | 0.559 | 0.518 | 0.81 | 0.834 | 0.542
IINENYDYLKV [NUP98_Y1664_G1669V] | 1.38 | 0.956 | 1.89 | 1.16 | 0.625 | 1.1 | 1.54 | 2.24 | 0.919 | 0.538 | 0.664 | 1.31 | 1.05 | 0.687 | 0.86 | 0.595
